According to patent US20210292422A1 (published 2021):

T1: LRP6E3E4 (UniProt O75581 631-1246)
T1 chain: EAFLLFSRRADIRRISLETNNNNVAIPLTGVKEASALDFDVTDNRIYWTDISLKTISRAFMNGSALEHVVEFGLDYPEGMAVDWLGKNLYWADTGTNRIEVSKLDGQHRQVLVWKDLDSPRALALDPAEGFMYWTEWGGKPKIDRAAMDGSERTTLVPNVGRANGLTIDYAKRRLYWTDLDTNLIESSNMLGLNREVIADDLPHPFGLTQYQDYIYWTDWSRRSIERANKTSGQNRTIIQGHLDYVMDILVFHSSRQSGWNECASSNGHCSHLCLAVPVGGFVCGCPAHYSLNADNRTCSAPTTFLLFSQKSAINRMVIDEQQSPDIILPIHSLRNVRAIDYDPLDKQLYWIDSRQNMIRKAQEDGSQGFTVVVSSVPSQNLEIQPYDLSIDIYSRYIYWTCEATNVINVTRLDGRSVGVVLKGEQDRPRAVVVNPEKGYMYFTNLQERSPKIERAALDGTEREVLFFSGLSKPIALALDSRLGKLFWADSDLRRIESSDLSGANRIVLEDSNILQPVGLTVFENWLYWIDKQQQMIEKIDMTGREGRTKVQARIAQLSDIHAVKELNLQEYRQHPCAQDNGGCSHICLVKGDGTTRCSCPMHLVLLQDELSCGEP

T2: LRP6E1E2 (UniProt O75581 20-630)
T2 chain: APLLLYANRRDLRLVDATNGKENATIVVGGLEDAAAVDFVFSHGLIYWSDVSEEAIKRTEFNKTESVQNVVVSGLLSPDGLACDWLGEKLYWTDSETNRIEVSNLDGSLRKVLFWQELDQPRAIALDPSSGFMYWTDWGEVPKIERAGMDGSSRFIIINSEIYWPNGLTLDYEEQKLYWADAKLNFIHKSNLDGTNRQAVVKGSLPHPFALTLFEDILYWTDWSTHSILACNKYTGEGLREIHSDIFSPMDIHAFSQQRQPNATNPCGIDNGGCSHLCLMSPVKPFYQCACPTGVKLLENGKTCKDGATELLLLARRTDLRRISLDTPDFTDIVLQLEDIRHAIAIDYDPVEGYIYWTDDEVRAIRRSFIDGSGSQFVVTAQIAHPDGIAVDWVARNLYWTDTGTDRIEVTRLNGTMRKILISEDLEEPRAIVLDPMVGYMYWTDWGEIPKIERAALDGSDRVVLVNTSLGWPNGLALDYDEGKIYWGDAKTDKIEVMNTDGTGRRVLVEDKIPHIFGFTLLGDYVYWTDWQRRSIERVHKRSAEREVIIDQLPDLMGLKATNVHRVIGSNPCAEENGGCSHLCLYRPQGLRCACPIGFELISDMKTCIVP


How the values were obtained:
Assay in all cases: BLI (Octet)
Frizzled 1 (Fzd1) = Frizzled 1 (Fzd1) (UniProt Q9UP38 111-230)
LRP6E3E4 = target: T1, LRP6E3E4
LRP6E1E2 = target: T2, LRP6E1E2

Binder | Kd (Frizzled 1 (Fzd1)) [nM] | Kd (LRP6E3E4) [nM] | further results
F1:5:αGFP:Fc (bispecific antibody) EVQLVESGGGLVQPGGSLRLSCAASGFTFSHYTLSWVRQAPGKGLEWVSVISGDGSYTYYADSVKGRFTISSDNSKNTLYLQMNSLRAEDTAVYYCARNFIKYVFANWGQGTLVTVSSGGGGSGGGGSGGGGSDIELTQPPSVSVAPGQTARISCSGDNIGSFYVHWYQQKPGQAPVLVIYDKSNRPSGIPERFSGSNSGNTATLTISGTQAEDEADYYCQSYANTLSLVFGGGTKLTVLGSGSGQVQLVESGGGLVQPGGSLRLSCAASGFTFSRYGMHWVRQAPGKGLEWVSGISSIGSNTYYADSVKGRFTISRDNSKNTLYLQMNSLRAEDTAVYYCARWYKTYIDVWGQGTLVTVSSGGGGSGGGGSGGGGSDIELTQPPSVSVAPGQTARISCSGDNLGKKYVYWYQQKPGQAPVLVIYGDDERPSGIPERFSGSNSGNTATLTISGTQAEDEADYYCASYDSSHILIVFGGGTKLTVLGSGSGDKTHTCPPCPAPEAAGGPSVFLFPPKPKDTLMISRTPEVTCVVVDVSHEDPEVKFNWYVDGVEVHNAKTKPREEQYNSTYRVVSVLTVLHQDWLNGKEYKCKVSNKALGAPIEKTISKAKGQPREPQVYTLPPSREEMTKNQVSLTCLVKGFYPSDIAVEWESNGQPENNYKTTPPVLDSDGSFFLYSKLTVDKSRWQQGNVFSCSVMHEALHNHYTQKSLSLSPGK | 0.2 | – | –
L2:5:αGFP:Fc (bispecific antibody) EVQLVESGGGLVQPGGSLRLSCAASGFTFTSYYISWVRQAPGKGLEWVAEISPYSGSTYYADSVKGRFTISADTSKNTAYLQMNSLRAEDTAVYYCALRARPPIRLHPRGSVMDYWGQGTLVTVSSGSAASGSSGGSSSGADIQMTQSPSSLSASVGDRVTITCRASQDVSTAVAWYQQKPGKAPKLLIYSASFLYSGVPSRFSGSGSGTDFTLTISSLQPEDFATYYCQQSYTTPPTFGQGTKVEIKGSGSGQVQLVESGGGLVQPGGSLRLSCAASGFTFSRYGMHWVRQAPGKGLEWVSGISSIGSNTYYADSVKGRFTISRDNSKNTLYLQMNSLRAEDTAVYYCARWYKTYIDVWGQGTLVTVSSGGGGSGGGGSGGGGSDIELTQPPSVSVAPGQTARISCSGDNLGKKYVYWYQQKPGQAPVLVIYGDDERPSGIPERFSGSNSGNTATLTISGTQAEDEADYYCASYDSSHILIVFGGGTKLTVLGSGSGDKTHTCPPCPAPEAAGGPSVFLFPPKPKDTLMISRTPEVTCVVVDVSHEDPEVKFNWYVDGVEVHNAKTKPREEQYNSTYRVVSVLTVLHQDWLNGKEYKCKVSNKALGAPIEKTISKAKGQPREPQVYTLPPSREEMTKNQVSLTCLVKGFYPSDIAVEWESNGQPENNYKTTPPVLDSDGSFFLYSKLTVDKSRWQQGNVFSCSVMHEALHNHYTQKSLSLSPGK | – | 0.5 | –
L1:5:αGFP:Fc (bispecific antibody) DVKLVESGGGLVKLGGSLRLSCAASGFSFSTSYMSWVRQTPEKRLELVAAINLNGGSTYYSDTVKGRFTISRDNAKNTLYLQMSSLKSEDTAFYYCASELAGYGTPFAYWGQGTLVTVSAGSAASGSSGGSSSGADIVLTQSPATLSVTPGDSVSLSCKASQSISYNLHWYQQKSHESPRLLIKYTSQSISGIPSRFSGSGSGTDFTLTINNVETEDFGMYFCQQSNSWPLTFGAGTKLEVKGSGSGQVQLVESGGGLVQPGGSLRLSCAASGFTFSRYGMHWVRQAPGKGLEWVSGISSIGSNTYYADSVKGRFTISRDNSKNTLYLQMNSLRAEDTAVYYCARWYKTYIDVWGQGTLVTVSSGGGGSGGGGSGGGGSDIELTQPPSVSVAPGQTARISCSGDNLGKKYVYWYQQKPGQAPVLVIYGDDERPSGIPERFSGSNSGNTATLTISGTQAEDEADYYCASYDSSHILIVFGGGTKLTVLGSGSGDKTHTCPPCPAPEAAGGPSVFLFPPKPKDTLMISRTPEVTCVVVDVSHEDPEVKFNWYVDGVEVHNAKTKPREEQYNSTYRVVSVLTVLHQDWLNGKEYKCKVSNKALGAPIEKTISKAKGQPREPQVYTLPPSREEMTKNQVSLTCLVKGFYPSDIAVEWESNGQPENNYKTTPPVLDSDGSFFLYSKLTVDKSRWQQGNVFSCSVMHEALHNHYTQKSLSLSPGK | – | – | Kd (LRP6E1E2): 16 nM

Continued, in another order:

Kd (Frizzled 1 (Fzd1)) [nM] | Kd (LRP6E3E4) [nM] | Binder | further results
– | 0.8 | αGFP:5:L2:Fc (bispecific antibody) QVQLVESGGGLVQPGGSLRLSCAASGFTFSRYGMHWVRQAPGKGLEWVSGISSIGSNTYYADSVKGRFTISRDNSKNTLYLQMNSLRAEDTAVYYCARWYKTYIDVWGQGTLVTVSSGGGGSGGGGSGGGGSDIELTQPPSVSVAPGQTARISCSGDNLGKKYVYWYQQKPGQAPVLVIYGDDERPSGIPERFSGSNSGNTATLTISGTQAEDEADYYCASYDSSHILIVFGGGTKLTVLGSGSGEVQLVESGGGLVQPGGSLRLSCAASGFTFTSYYISWVRQAPGKGLEWVAEISPYSGSTYYADSVKGRFTISADTSKNTAYLQMNSLRAEDTAVYYCALRARPPIRLHPRGSVMDYWGQGTLVTVSSGSAASGSSGGSSSGADIQMTQSPSSLSASVGDRVTITCRASQDVSTAVAWYQQKPGKAPKLLIYSASFLYSGVPSRFSGSGSGTDFTLTISSLQPEDFATYYCQQSYTTPPTFGQGTKVEIKGSGSGDKTHTCPPCPAPEAAGGPSVFLFPPKPKDTLMISRTPEVTCVVVDVSHEDPEVKFNWYVDGVEVHNAKTKPREEQYNSTYRVVSVLTVLHQDWLNGKEYKCKVSNKALGAPIEKTISKAKGQPREPQVYTLPPSREEMTKNQVSLTCLVKGFYPSDIAVEWESNGQPENNYKTTPPVLDSDGSFFLYSKLTVDKSRWQQGNVFSCSVMHEALHNHYTQKSLSLSPGK | –
2.5 | – | αGFP:5:F1:Fc (bispecific antibody) QVQLVESGGGLVQPGGSLRLSCAASGFTFSRYGMHWVRQAPGKGLEWVSGISSIGSNTYYADSVKGRFTISRDNSKNTLYLQMNSLRAEDTAVYYCARWYKTYIDVWGQGTLVTVSSGGGGSGGGGSGGGGSDIELTQPPSVSVAPGQTARISCSGDNLGKKYVYWYQQKPGQAPVLVIYGDDERPSGIPERFSGSNSGNTATLTISGTQAEDEADYYCASYDSSHILIVFGGGTKLTVLGSGSGEVQLVESGGGLVQPGGSLRLSCAASGFTFSHYTLSWVRQAPGKGLEWVSVISGDGSYTYYADSVKGRFTISSDNSKNTLYLQMNSLRAEDTAVYYCARNFIKYVFANWGQGTLVTVSSGGGGSGGGGSGGGGSDIELTQPPSVSVAPGQTARISCSGDNIGSFYVHWYQQKPGQAPVLVIYDKSNRPSGIPERFSGSNSGNTATLTISGTQAEDEADYYCQSYANTLSLVFGGGTKLTVLGSGSGDKTHTCPPCPAPEAAGGPSVFLFPPKPKDTLMISRTPEVTCVVVDVSHEDPEVKFNWYVDGVEVHNAKTKPREEQYNSTYRVVSVLTVLHQDWLNGKEYKCKVSNKALGAPIEKTISKAKGQPREPQVYTLPPSREEMTKNQVSLTCLVKGFYPSDIAVEWESNGQPENNYKTTPPVLDSDGSFFLYSKLTVDKSRWQQGNVFSCSVMHEALHNHYTQKSLSLSPGK | –
